Experiments:
[1] = molecular target: Fyn (UniProt P06241); experiment: phosphorylation enrichment, bacterial display (enrichment ratio); higher = better substrate or ligand; peptides without Tyr show the background
[2] = molecular target: Jak2 (UniProt O60674); experiment: as above
[3] = molecular target: Fes (UniProt P07332); experiment: as above
[4] = molecular target: FGFR1 (UniProt P11362); experiment: as above
[5] = test system: AncSZ; experiment: as above
[6] = test system: c-Src; experiment: as above
[7] = molecular target: EPHB2 (UniProt P29323); experiment: as above
[8] = molecular target: FGFR3 (UniProt P22607); experiment: as above
[9] = molecular target: Hck (UniProt P08631); experiment: as above
[10] = test system: c-Abl (mouse); experiment: as above
[11] = molecular target: EPHB1 (UniProt P54762); experiment: as above
[12] = test system: Fer (mouse); experiment: as above
[13] = molecular target: MERTK (UniProt Q12866); experiment: as above
[14] = molecular target: c-Src SH2; experiment: SH2 binding enrichment of the phosphorylated peptide, bacterial display (enrichment ratio); higher = better substrate or ligand; peptides without Tyr show the background
[15] = molecular target: SHP2-C SH2; experiment: as above
[16] = molecular target: Grb2 SH2 (UniProt P62993); experiment: as above
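Throughout, for SH2 binding enrichment of the phosphorylated peptide, bacterial display: peptide library displayed on the E. coli surface as eCPX fusions, selected cells deep-sequenced, score is each peptide's frequency after selection divided by its frequency in the input.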
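Throughout, for phosphorylation enrichment, bacterial display: 11-residue human phosphosite peptides and single-mutation variants displayed on the E. coli surface, counted by deep sequencing, each peptide's frequency after selection divided by its frequency in the unselected input library; frequency after pTyr selection over input frequency; kinase dosed for 20-30% of maximal phosphorylation in three min.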

Sequence of EPHB1 (P54762 whole entry, looked up): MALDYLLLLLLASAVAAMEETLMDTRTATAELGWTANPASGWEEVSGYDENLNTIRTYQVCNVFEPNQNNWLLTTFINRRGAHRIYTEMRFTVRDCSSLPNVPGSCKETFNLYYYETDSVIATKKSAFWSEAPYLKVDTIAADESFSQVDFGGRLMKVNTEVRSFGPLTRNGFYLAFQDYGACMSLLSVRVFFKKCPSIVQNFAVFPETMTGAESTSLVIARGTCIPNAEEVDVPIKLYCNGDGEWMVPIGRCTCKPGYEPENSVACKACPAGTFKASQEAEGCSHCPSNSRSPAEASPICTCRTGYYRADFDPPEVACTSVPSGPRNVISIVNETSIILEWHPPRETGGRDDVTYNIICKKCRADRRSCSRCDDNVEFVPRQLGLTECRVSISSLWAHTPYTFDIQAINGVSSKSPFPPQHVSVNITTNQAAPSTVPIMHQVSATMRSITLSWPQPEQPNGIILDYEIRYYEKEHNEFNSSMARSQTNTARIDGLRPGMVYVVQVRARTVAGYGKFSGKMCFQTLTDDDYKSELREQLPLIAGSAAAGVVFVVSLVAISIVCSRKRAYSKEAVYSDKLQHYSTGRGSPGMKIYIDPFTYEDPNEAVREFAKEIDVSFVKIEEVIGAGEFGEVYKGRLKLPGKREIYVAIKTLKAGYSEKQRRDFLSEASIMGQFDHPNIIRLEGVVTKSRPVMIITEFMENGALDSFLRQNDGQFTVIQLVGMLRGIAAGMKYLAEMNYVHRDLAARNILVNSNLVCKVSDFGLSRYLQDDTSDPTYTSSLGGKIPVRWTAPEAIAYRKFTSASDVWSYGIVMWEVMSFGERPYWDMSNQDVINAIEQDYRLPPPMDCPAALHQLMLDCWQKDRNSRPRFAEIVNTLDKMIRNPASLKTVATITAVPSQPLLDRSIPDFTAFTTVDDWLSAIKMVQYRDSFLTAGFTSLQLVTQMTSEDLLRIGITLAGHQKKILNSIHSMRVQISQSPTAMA
Sequence of Jak2 (O60674 whole entry, looked up): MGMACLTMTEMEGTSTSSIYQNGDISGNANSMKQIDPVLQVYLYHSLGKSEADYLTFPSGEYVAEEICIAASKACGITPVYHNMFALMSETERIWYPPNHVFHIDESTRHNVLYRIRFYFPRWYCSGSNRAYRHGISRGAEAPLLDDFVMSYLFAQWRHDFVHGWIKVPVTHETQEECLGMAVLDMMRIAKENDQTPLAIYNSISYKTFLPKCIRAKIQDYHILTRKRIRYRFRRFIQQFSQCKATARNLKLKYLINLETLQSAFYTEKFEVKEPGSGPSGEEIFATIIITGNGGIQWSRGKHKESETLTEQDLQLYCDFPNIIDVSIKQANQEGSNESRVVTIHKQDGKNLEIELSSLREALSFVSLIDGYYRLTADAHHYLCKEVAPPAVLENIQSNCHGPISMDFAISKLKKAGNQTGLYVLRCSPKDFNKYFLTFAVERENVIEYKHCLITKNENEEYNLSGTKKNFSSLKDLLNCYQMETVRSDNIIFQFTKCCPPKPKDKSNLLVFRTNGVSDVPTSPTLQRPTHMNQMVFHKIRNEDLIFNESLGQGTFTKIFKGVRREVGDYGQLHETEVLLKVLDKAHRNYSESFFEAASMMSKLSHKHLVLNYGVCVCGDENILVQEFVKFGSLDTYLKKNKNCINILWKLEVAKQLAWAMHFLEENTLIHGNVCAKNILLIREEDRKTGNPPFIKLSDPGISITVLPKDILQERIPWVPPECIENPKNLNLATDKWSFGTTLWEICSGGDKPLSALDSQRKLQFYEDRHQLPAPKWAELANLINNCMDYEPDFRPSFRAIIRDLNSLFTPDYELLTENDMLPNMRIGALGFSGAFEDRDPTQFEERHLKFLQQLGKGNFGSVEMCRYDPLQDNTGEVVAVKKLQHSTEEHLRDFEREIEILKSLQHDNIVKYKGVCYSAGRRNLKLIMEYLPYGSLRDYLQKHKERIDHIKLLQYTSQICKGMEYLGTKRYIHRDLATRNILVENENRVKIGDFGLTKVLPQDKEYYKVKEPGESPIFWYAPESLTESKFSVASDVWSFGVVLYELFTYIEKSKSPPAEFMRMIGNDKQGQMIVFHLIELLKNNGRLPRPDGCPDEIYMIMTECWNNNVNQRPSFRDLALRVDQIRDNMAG
Sequence of EPHB2 (P29323 whole entry, looked up): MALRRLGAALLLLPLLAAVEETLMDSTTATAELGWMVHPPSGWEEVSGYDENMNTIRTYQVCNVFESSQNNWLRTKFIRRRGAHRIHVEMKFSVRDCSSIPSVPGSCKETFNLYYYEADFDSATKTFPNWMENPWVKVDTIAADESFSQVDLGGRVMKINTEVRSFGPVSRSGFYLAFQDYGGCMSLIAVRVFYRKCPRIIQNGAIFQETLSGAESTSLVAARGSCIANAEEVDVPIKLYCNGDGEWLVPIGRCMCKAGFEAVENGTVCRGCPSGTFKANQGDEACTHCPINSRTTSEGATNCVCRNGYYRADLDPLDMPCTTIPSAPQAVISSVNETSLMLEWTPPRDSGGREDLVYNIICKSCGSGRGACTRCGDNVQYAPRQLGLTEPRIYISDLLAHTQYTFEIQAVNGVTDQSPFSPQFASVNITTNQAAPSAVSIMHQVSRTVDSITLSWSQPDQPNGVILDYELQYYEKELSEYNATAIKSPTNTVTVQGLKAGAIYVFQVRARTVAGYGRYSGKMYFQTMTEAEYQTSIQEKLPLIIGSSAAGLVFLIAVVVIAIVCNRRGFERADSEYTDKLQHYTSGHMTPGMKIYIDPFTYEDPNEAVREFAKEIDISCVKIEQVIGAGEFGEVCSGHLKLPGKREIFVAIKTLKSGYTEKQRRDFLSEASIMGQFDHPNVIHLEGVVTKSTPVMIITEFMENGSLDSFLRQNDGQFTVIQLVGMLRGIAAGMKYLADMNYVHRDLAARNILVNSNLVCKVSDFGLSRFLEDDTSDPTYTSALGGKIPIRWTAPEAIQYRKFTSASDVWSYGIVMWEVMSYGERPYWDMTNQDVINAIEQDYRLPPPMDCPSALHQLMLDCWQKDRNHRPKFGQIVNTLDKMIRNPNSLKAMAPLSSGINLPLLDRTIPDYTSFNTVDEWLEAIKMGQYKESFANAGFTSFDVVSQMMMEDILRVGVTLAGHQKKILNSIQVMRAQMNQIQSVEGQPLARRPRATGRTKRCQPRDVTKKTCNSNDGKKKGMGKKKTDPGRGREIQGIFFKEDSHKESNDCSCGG
Sequence of Hck (P08631 whole entry, looked up): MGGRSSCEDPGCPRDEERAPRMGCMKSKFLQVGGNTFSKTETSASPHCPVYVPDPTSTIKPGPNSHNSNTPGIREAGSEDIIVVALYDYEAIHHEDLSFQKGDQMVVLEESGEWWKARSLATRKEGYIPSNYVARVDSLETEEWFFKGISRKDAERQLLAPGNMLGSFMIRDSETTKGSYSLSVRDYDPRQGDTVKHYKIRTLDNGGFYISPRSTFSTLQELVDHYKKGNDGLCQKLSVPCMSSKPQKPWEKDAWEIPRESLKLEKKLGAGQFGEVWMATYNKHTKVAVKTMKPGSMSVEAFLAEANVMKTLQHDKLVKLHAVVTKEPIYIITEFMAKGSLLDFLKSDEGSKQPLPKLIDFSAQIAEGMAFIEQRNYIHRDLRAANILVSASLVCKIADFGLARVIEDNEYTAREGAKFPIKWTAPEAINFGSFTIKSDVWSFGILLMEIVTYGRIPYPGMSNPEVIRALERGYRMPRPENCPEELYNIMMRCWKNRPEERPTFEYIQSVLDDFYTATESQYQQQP
Sequence of Fyn (P06241 whole entry, looked up): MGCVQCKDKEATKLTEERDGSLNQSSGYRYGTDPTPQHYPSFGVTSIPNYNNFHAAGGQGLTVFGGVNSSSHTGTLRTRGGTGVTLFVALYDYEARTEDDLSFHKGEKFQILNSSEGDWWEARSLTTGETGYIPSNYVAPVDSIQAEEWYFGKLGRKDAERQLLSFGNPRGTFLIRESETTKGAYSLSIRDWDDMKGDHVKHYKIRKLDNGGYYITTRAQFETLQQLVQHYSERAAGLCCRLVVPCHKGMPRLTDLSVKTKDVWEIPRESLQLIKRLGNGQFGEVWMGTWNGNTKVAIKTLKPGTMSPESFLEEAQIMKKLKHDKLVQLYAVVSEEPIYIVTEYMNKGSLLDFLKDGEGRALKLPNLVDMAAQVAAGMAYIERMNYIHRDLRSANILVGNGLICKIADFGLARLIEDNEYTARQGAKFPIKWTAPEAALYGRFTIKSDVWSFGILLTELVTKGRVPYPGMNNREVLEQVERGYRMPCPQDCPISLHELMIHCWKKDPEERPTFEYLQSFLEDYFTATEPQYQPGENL
Sequence of FGFR3 (P22607 whole entry, looked up): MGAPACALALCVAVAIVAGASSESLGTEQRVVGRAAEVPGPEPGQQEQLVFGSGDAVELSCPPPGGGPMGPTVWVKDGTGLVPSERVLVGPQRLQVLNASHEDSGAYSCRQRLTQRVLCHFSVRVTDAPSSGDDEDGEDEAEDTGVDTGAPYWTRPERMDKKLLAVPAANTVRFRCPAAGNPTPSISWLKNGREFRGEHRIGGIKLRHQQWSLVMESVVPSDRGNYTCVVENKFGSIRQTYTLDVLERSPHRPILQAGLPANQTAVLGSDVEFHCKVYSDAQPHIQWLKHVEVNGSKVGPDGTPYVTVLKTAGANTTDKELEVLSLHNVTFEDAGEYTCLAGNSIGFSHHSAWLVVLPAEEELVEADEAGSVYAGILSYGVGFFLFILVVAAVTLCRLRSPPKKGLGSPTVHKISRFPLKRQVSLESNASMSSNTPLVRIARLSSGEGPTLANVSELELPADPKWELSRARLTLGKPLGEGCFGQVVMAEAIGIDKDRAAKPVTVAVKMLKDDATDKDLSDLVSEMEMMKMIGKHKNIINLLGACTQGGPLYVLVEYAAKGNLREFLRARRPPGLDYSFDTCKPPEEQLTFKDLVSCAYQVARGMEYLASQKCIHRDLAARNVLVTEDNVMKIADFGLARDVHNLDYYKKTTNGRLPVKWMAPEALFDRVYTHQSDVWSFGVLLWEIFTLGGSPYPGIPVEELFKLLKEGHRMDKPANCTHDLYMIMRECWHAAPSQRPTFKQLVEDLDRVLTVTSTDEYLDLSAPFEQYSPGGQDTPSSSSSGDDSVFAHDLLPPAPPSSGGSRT

Row | SH2 binding enrichment [14] | SH2 binding enrichment [15] | SH2 binding enrichment [16] | Sequence | phosphorylation enrichment [1] | phosphorylation enrichment [2] | phosphorylation enrichment [3] | phosphorylation enrichment [4] | phosphorylation enrichment [5] | phosphorylation enrichment [6] | phosphorylation enrichment [7] | phosphorylation enrichment [8] | phosphorylation enrichment [9] | phosphorylation enrichment [10] | phosphorylation enrichment [11] | phosphorylation enrichment [12] | phosphorylation enrichment [13]
1 | 0.579 | 0.772 | 0.867 | DSLASYLDKVR [KRT10_Y160_R156S] | 0.448 | 0.682 | 0.78 | 0.5 | 0.701 | 0.46 | 0.4 | 0.558 | 0.469 | 0.629 | 0.491 | 0.416 | 0.46
2 | 0.518 | 0.589 | 0.679 | DTCPPYVLSQG [GJB4_Y237] | 0.663 | 1.21 | 1.32 | 0.552 | 1.12 | 0.637 | 0.417 | 0.77 | 0.507 | 1.07 | 0.637 | 0.671 | 0.439
3 | 0.624 | 0.797 | 0.77 | DTCPPYVLSQV [GJB4_Y237_G242V] | 0.573 | 0.969 | 1.11 | 0.475 | 1.01 | 0.606 | 0.635 | 0.776 | 0.606 | 0.668 | 0.685 | 1.2 | 0.432
4 | 0.445 | 0.574 | 0.927 | DTKAFYPEEIS [HSPA1A_Y115_E110D] | 0.441 | 0.933 | 1.1 | 0.482 | 1.05 | 0.523 | 0.579 | 0.88 | 0.393 | 0.752 | 0.456 | 0.479 | 0.432
5 | 0.562 | 0.431 | 0.757 | DVCKKYAEAKD [ALB_Y343_N342K] | 0.639 | 0.897 | 1.23 | 0.627 | 1.24 | 0.53 | 0.646 | 0.821 | 0.659 | 0.775 | 0.72 | 0.546 | 0.402
6 | 0.807 | 0.674 | 0.824 | DVCKNYTEAKD [ALB_Y343_A344T] | 0.497 | 0.712 | 0.963 | 0.51 | 0.92 | 0.385 | 0.581 | 0.613 | 0.494 | 0.549 | 0.555 | 0.511 | 0.5
7 | 0.63 | 0.588 | 0.993 | DWWQEYVLNES [TGM1_Y267_R264W] | 0.563 | 1.55 | 1.51 | 1.61 | 2.11 | 4.1 | 0.817 | 0.97 | 0.515 | 0.777 | 0.831 | 0.678 | 0.403
8 | 0.581 | 0.53 | 0.611 | DYLEKYYKFGC [NNMT_Y24_S29C] | 0.588 | 1.25 | 1.28 | 0.855 | 1.44 | 0.78 | 0.802 | 1.14 | 0.539 | 1.04 | 0.824 | 0.563 | 0.541
9 | 0.838 | 0.665 | 1.01 | DYYDLYGGEKK [PTPN11_Y66_F71K] | 4.04 | 2.36 | 1.17 | 15.8 | 2.84 | 3.65 | 4.52 | 14.1 | 4.06 | 0.945 | 6.24 | 0.888 | 2.72
10 | 0.471 | 0.757 | 0.813 | EALDFYGEVKT [PTEN_Y155_R159K] | 1.2 | 1.6 | 1.56 | 0.53 | 1.19 | 1.21 | 0.722 | 0.823 | 1.15 | 0.844 | 0.719 | 0.78 | 0.409
11 | 0.661 | 0.606 | 12.9 | EERKTYVNTML [TEK_Y1102_T1106M] | 0.44 | 0.637 | 0.803 | 0.428 | 0.71 | 0.362 | 0.442 | 0.506 | 0.378 | 0.55 | 0.385 | 0.42 | 0.354
12 | 0.446 | 0.789 | 0.859 | EERNPYFSSAR [MCCC2_Y520_G517R_YF] | 0.475 | 0.779 | 0.752 | 0.486 | 0.769 | 1.08 | 0.392 | 0.404 | 0.659 | 0.624 | 0.466 | 0.36 | 0.407
13 | 0.951 | 0.816 | 0.923 | EHFSYYGMKAV [SLC15A2_Y61_R57H] | 1.71 | 9.46 | 0.765 | 8.11 | 1.01 | 3.38 | 0.818 | 6.68 | 3.42 | 0.634 | 0.887 | 0.607 | 2.35
14 | 0.491 | 0.661 | 0.77 | EITSHYRHLLR [ZBTB46_Y14] | 0.319 | 0.601 | 0.819 | 0.444 | 0.733 | 0.475 | 0.443 | 0.517 | 0.389 | 0.733 | 0.417 | 0.571 | 0.392
15 | 0.433 | 0.641 | 0.803 | EKIANYKEGTY [CLRN1_Y171] | 0.546 | 0.654 | 0.704 | 0.45 | 0.671 | 0.468 | 0.389 | 0.449 | 0.489 | 0.76 | 0.573 | 0.552 | 0.41

Row | Sequence | SH2 binding enrichment [14] | SH2 binding enrichment [15] | SH2 binding enrichment [16] | phosphorylation enrichment [1] | phosphorylation enrichment [2] | phosphorylation enrichment [3] | phosphorylation enrichment [4] | phosphorylation enrichment [5] | phosphorylation enrichment [6] | phosphorylation enrichment [7] | phosphorylation enrichment [8] | phosphorylation enrichment [9] | phosphorylation enrichment [10] | phosphorylation enrichment [11] | phosphorylation enrichment [12] | phosphorylation enrichment [13]
16 | DSNPIYSQIWS [FCRL3_Y662] | 0.851 | 0.89 | 1.1 | 12.1 | 1.18 | 14.4 | 6.65 | 1.88 | 8.52 | 21.2 | 5.05 | 12 | 14.1 | 20.2 | 19.4 | 11.8
